Assay results reported in PMC4606454.

Key:
YFP-KYP (Arabidopsis) = YFP-KYP (Arabidopsis) (UniProt Q8GZB6); assay: FRET or BRET; FRET acceptor photobleaching (FRET-AB) in nuclei of N. benthamiana epidermal cells; TrAP-CFP donor, YFP-KYP acceptor; 27-30 cells per experiment
[1] = biological target: His-MBP-KYP (Arabidopsis) (UniProt Q8GZB6)

| Substance | FRET-AB (YFP-KYP (Arabidopsis)) | initial velocity of KYP transmethylation of histone 3 (in vitro HMTase reconstitution with 14C-SAM; His-MBP-TrAP pre-incubated with His-GST-KYP at molar ratios 0-10); IC50 as TrAP:KYP molar ratio (TrAP:KYP molar ratio) [1] |
| --- | --- | --- |
| CaLCuV TrAP-CFP (natural protein) | 2.7 | – |
| His-GST-CaLCuV-TrAP (natural protein) | – | 2 |
| TGMV TrAP-CFP (natural protein) | 3.82 | – |
| His-GST-TGMV-TrAP (natural protein) | – | 2 |
